We go through one molecule from publication PMC5228031, “CDK4/6-dependent activation of DUB3 regulates cancer metastasis through SNAIL1” (Nature Communications, 2017).

For this assay, the target named is T1, His-DUB3 (UniProt Q6R6M4 1-530).
T1 construct: cloned into PET28A; source: purified recombinant
T1 sequence (looked up): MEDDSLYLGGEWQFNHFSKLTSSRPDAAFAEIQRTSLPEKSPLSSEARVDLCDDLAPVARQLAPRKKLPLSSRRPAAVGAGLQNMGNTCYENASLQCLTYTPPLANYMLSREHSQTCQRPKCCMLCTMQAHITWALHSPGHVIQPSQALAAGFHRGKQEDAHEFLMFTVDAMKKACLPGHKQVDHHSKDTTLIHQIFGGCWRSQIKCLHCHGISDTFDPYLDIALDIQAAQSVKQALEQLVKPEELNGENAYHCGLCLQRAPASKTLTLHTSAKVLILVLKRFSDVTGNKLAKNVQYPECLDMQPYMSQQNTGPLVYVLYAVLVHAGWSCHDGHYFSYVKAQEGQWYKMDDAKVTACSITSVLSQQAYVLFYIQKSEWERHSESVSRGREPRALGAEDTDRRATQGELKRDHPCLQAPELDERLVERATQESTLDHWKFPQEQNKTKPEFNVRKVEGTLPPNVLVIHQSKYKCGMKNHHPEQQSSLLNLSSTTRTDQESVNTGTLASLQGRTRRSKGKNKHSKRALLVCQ
Briefly: pull-down; purified recombinant GST or GST fusion protein and His-tagged protein incubated in vitro. The conditions noted are these: both partners purified.

B1: GST-CDK4 (enzyme, UniProt P11802 1-303, looked up)
chain: MATSRYEPVAEIGVGAYGTVYKARDPHSGHFVALKSVRVPNGGGGGGGLPISTVREVALLRRLEAFEHPNVVRLMDVCATSRTDREIKVTLVFEHVDQDLRTYLDKAPPPGLPAETIKDLMRQFLRGLDFLHANCIVHRDLKPENILVTSGGTVKLADFGLARIYSYQMALTPVVVTLWYRAPEVLLQSTYATPVDMWSVGCIFAEMFRRKPLFCGNSEADQLGKIFDLIGLPPEDDWPRDVSLPRGAFPPRGPRPVQSVVPEMEESGAQLLLEMLTFNPHKRISAFRALQHSYLHKDEGNPE
notes: also called CDK4/6; source: purified recombinant
Turning to B1, the binding result is listed as “binds”.
